Measurements taken from patent publication US20230203559A1, “METHOD FOR QUANTIFYING ETHANOLAMINE PHOSPHATE, OXIDOREDUCTASE FOR QUANTIFICATION, QUANTIFICATION COMPOSITION, QUANTIFICATION KIT, SENSOR CHIP, AND SENSOR” (KIKKOMAN CORPORATION, priority 2020, published 2023).

How the values were obtained:
[1] = Verification of EAP to EA conversion reaction by ALP, detected with LrHP (4-AA/TOOS/POD, absorbance at 555 nm); format: biochemical; conditions: 1 mM EAP, LrHP final 25 pg/ml, pH 8.0, 300 seconds
Description: A reagent for activity measurement of the following composition was prepared.
A sample containing 1 mM EA was mixed with the reaction reagent (pH 8.0) shown in Table 2 in a 1.5 ml microtube at 4° C. 2 μl of ALP (so that the final concentration is 5 U/ml) was added thereto and incubated at 37° C. for 5 minutes. 20 μl of LrHP (so that the final concentration is 25 pg/ml) was added thereto, mixed by pipetting, transferred to a cuvette, and immediately set in a spectrophotometer (U-3900, manufactured by Hitachi High-Tech Science Corporation), and the absorbance at 555 nm was measured over time for 300 seconds.
Similarly, a sample containing 1 mM EAP was used, and 2 μl of alkaline phosphatase (ALP) or water was added to the reaction reagent (pH 8.0) (so that the final concentration is 5 U/ml) and incubated at 37° C. for 5 minutes. Next, 20 μl of LrHP (so that the final concentration is 25 pg/ml) was added thereto, mixed by pipetting, transferred to a cuvette, and immediately set in a spectrophotometer, and the absorbance at 555 nm was measured over time for 300 seconds.
The time immediately after the addition of LrHP is set to 0 seconds from the start of the measurement. […] This linear increase in absorbance was similar to the tendency to increase in the case where EA was directly used as a substrate instead of acting phosphatase on EAP.

[2] = Measurement of EAP combined with ALP and LrHP in plasma model solution containing contaminating amines; format: biochemical
Description: The reaction reagent (pH 8.0) shown in Table 2 was mixed in a 1.5 ml microtube at 4° C. and incubated at 37° C. for 2 minutes. In this case, 47 μl of LrHP was added (so that the final concentration is 1 mg/ml). […] The measurement was paused, 10 μl of alkaline phosphatase (25 U/ml) was added to the cuvette, mixed by pipetting, and immediately set in a spectrophotometer, and the absorbance at 555 nm was measured over time for 500 seconds.

B1: LrHP: hypothetical protein (GenBank ID CDS02610.1), amino acid sequence SEQ ID NO: 11, derived from Lichtheimia ramosa; oxidase acting on EA (protein, listed as Lichtheimia ramosa)
chain: MSSSPIKPYPLDPLTADEIRRAAALIRETRGQDTTYVFNSLTLKEPSKQQMMSYLGWTNSPSHPKPVTIDREVFAVLIDRPSGLVHEMTVNLDKNQVTRWNKVEGRQPTVNVFEMLEAEREILKDERVKEQCRQLGINDMSMVFADPWGVGYHEIKGKRLVQALMYARTSPDDNQYAHPLDFNPLYDVNAKKVIDIIVSKRRNSSFDRPVIPMANHHFLPEHLGQDRLRKDIKPIEITQPQGVSFSIRDGHQLHWQKWDMHLSFNYREGLVINNLSYRDMDGTVRPIIYRMSLSEMVVPYANPYKPYNHKMAFDVGEYGLGNLTNSLELGCDCVGKICYLDATLSDLNGDPWQIPNAICIHEEDTGLLFKHTDYRTGKAHSARSRRLVISHIVTAANYDYGLYYYFYQDGTIQYEVKATGELNTQVLAADEDAAPYGTIVAPQVDAQHHQHLFSMRIDPMVDGPNNSVAEVDVVASDLPVGHPHNSIGNSFYPVTKVFNTTDEAKTMASIERHRSWKIINENKIHPYAKQPVGFKMMAHPTPPLLPKPGSIVYERAMFASKTLWVTPYNEEQRYPGGFYCYQSEPSENLGLPQWTKETQNVRDTDIVCWLNFGITHIPRVEDFPIMPIETCGVMLKPVNFFLGNPGIDIPPSTRQSTKSAYATEATCCRKNNL
In the case of B1, the “change in absorbance at 555 nm (EAP oxidization activity)” value ([1]; ALP added (final 5 U/ml, 37° C., 5 minutes)) is reported as “increase in absorbance with time was observed”, the “change in absorbance at 555 nm (EAP oxidization activity)” value ([1]; ALP not added) is reported as “no change in absorbance was observed” and the “elimination of EA in the sample” value ([2]; LrHP final 1 mg/ml, EA 10.4 μM, β-alanine 29 μM, taurine 39.5 μM, EAP 1.5 μM, after 500 seconds) is reported as “the EA in the sample was exhausted”. For the same molecule, the “change in absorbance at 555 nm after 500 seconds” value ([2]; water added instead of ALP, final EAP 1.5 μM) was “No change in absorbance occurred”.
